In article PMC9961482:

Target: Encapsulin–SpyTag (Myxococcus xanthus | Streptococcus pyogenes) (UniProt Q1D6H4)
Test: reducing SDS-PAGE + SEC

Chain of Encapsulin–SpyTag (Myxococcus xanthus | Streptococcus pyogenes) (Q1D6H4 1-287, tags left off): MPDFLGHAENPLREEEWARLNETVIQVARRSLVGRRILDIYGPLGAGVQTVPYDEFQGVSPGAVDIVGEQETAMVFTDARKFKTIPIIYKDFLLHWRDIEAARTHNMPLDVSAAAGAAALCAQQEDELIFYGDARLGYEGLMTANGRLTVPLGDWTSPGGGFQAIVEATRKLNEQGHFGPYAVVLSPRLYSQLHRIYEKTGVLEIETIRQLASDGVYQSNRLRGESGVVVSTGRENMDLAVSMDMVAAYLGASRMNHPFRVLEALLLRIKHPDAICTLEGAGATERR

## mRBD–SpyCatcher (from UniProt P0DTC2 332-532)
  per cent conjugation: 90 per cent
